Source: patent US11548914B2, “IL-2Rgamma binding compounds” (MEDIKINE, INC., priority 2018, dated 2023)
Ends that are not written are not given here.

Experiments:
IL-2Rγc subunit = target: T1, IL-2Rγc subunit (Homo sapiens, UniProt P31785); experiment: competitive binding of synthetic peptides against phage clones on IL-2Rγc; conditions: for competition with phage clone peptide SEQ ID NO 198: phage family 1A; for competition with phage clone peptide SEQ ID NO 224: phage family 1B; for competition with phage clone peptide SEQ ID NO 236: phage family 2; for competition with phage clone peptide SEQ ID NO 248: phage family 3; for competition with phage clone peptide SEQ ID NO 266: phage family 4; for competition with phage clone peptide SEQ ID NO 948: phage family 5
T1 construct: Fc; purchased ACRObiosystems, Inc. ILG-H5256
T1 sequence (P31785 23-254): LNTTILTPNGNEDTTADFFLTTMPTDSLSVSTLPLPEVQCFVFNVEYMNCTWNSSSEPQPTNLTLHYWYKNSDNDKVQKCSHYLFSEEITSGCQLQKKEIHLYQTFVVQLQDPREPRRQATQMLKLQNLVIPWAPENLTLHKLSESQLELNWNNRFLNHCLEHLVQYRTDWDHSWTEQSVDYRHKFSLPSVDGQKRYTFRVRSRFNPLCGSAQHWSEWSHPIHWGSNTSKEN
Method: (§1) Representative phage clones displaying peptides from IL-2Rβ ligand families were bound to the extracellular domain (ECD) of IL-2Rβ immobilized in microtiter wells. Phage binding was conducted in the presence and absence of synthetic test peptides to determine if phage peptides and test peptides competed for binding to the same sites on IL-2Rβ . Synthetic test peptides were selected to represent peptides from IL-2Rβ ligand families, as well positive and negative control peptides.
(§2) Phage binding to the immobilized IL-2Rβ ECD was detected by staining with antibody against phage coat proteins (anti-phage Ab), staining with labeled secondary antibody against the anti-phage Ab, and scored by reading OD in the microtiter plate optical reader.
(§3) The ELISA signal for each phage binding in the presence and absence of the test peptides was compared to determine which synthetic peptides competed with which phage peptides for binding to the IL-2Rβ subunit.
A similar study was performed to evaluate the binding of IL-2Rγc ligands.

[1] = target: T2, extracellular domain (ECD) of IL-2Rβ (Homo sapiens, UniProt P14784); experiment: competitive binding of synthetic peptides against phage clones on IL-2Rβ; conditions: for competition with phage clone peptide SEQ ID NO: 58: phage family 1; for competition with phage clone peptide SEQ ID NO: 170: phage family 2A; for competition with phage clone peptide SEQ ID NO: 83: phage family 2B; for competition with phage clone peptide SEQ ID NO: 1034: phage family 2C; for competition with phage clone peptide SEQ ID NO: 1044: phage family 4
T2 construct: Fc; purchased ACRObiosystems, Inc. ILB-H5253
T2 sequence (P14784 27-239): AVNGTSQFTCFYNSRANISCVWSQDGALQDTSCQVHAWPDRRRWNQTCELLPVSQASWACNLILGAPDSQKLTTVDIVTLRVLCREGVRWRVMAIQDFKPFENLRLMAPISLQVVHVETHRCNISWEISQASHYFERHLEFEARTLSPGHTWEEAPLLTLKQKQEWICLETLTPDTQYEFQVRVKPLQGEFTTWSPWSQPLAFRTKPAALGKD
Method: as §1, §2, §3

NK-92 cells = experiment: STAT5 phosphorylation in NK-92 cells; format: cell-based, human; conditions: NK-92 cells, 10, 1, 0.1 μM, 30 min
Method: NK-92 cells were seeded in a 24-well plate at 4×10^5 cells, in 1 mL starvation medium (SM), and incubated overnight at 37° C., 5% CO2. The starvation medium contained RPMI 1640+20% FBS+2 mM L-glutamine+1 mM NaPyr+10 mM HEPES+0.1 mM BME (no rhIL-2 supplement).
Treatment mixtures were of 1 μg/mL Anti-hIL-2 neutralizing antibody (0.2 mg/mL stock) or goat IgG control (1 mg/mL stock) were prepared.
The treatment mixtures and the antibody mix were added to the cells for 30 min at 37° C., 5% CO2. Each sample was then transferred to a 1.5 mL microfuge tube and spun down at 1,500 RPM for 5 minutes. The cells were washed in 1 mL PBS and centrifuged again.
A phosphatase and protease inhibitor cocktail (Thermo #78442) were added to mPER buffer at a 1:100 dilution. After the cells were pelleted, 50 μL of mPER buffer was added to each sample and pipetted repeatedly to homogenize.
The lysates were centrifuged at 14,000 RPM for 5 min at RT. The supernatants were transferred to clean tubes and stored frozen at −80° C.
The treatment reagents included Anti-STAT5 Antibody (rabbit), Cell Signaling No. 94205S; Anti-pSTAT5 Antibody (rabbit), Cell Signaling No. 4322S; and Goat anti-rabbit IgG-HRP, Jackson Immunoresearch No. 111-035-144.

948 (SLLKCYNASTCASVF) [Peptide 948]
competition with phage clone peptide SEQ ID NO 198 (IL-2Rγc subunit): −^2 | competition with phage clone peptide SEQ ID NO 224 (IL-2Rγc subunit): − | competition with phage clone peptide SEQ ID NO 236 (IL-2Rγc subunit): − | competition with phage clone peptide SEQ ID NO 248 (IL-2Rγc subunit): − | competition with phage clone peptide SEQ ID NO 266 (IL-2Rγc subunit): − | competition with phage clone peptide SEQ ID NO 948 (IL-2Rγc subunit): + (Peptide competes with phage binding.)

224 (DCSMWEGVELCW) [compound 224]
competition for binding to the IL-2Rβ binding site with the group of IL-2Rβ ligands [1]: does not compete

169 (NMCLVGDYWPSCQI) [Peptide 169]
competition with phage clone peptide SEQ ID NO: 58 [1]: + (Peptide competes with phage binding.) | competition with phage clone peptide SEQ ID NO: 170 [1]: + (Peptide competes with phage binding.) | competition with phage clone peptide SEQ ID NO: 83 [1]: + (Peptide competes with phage binding.) | competition with phage clone peptide SEQ ID NO: 1034 [1]: + (Peptide competes with phage binding.) | competition with phage clone peptide SEQ ID NO: 1044 [1]: −

58 (YDCRIAQVGELCDL) [compound 58]
competition for binding to the IL-2Rγc binding site with the group of IL-2Rγc ligands (IL-2Rγc subunit): does not compete

Compound A: heterodimer of SEQ. ID. NO: 58 and SEQ ID. NO. 224 (chain 1 YDCRIAQVGELCDL; chain 2 DCSMWEGVELCW; cysteine pairing not given here; also: heterodimer, linkage not given here)
STAT5 phosphorylation (pSTAT5), Western Blot (NK-92 cells): induced (in a dose-responsive manner) STAT5 phosphorylation

1044 (RSCYYKRPRLWCSE) [Peptide 1044]
competition with phage clone peptide SEQ ID NO: 58 [1]: −^2 | competition with phage clone peptide SEQ ID NO: 170 [1]: − | competition with phage clone peptide SEQ ID NO: 83 [1]: − | competition with phage clone peptide SEQ ID NO: 1034 [1]: − | competition with phage clone peptide SEQ ID NO: 1044 [1]: −

948 (SLLKCYNASTCASVF) [compound 948]
competition for binding to the IL-2Rγc binding site with the group of IL-2Rγc ligands (IL-2Rγc subunit): does not compete

202 (RTCTEWENVVLCWV) [Peptide 202]
competition with phage clone peptide SEQ ID NO 198 (IL-2Rγc subunit): +^1 (Peptide competes with phage binding.) | competition with phage clone peptide SEQ ID NO 224 (IL-2Rγc subunit): + (Peptide competes with phage binding.) | competition with phage clone peptide SEQ ID NO 236 (IL-2Rγc subunit): + (Peptide competes with phage binding.) | competition with phage clone peptide SEQ ID NO 248 (IL-2Rγc subunit): + (Peptide competes with phage binding.) | competition with phage clone peptide SEQ ID NO 266 (IL-2Rγc subunit): + (Peptide competes with phage binding.) | competition with phage clone peptide SEQ ID NO 948 (IL-2Rγc subunit): −

1042 (CYEVGDYCQSPL) [Peptide 1042]
competition with phage clone peptide SEQ ID NO: 58 [1]: + (Peptide competes with phage binding.) | competition with phage clone peptide SEQ ID NO: 170 [1]: + (Peptide competes with phage binding.) | competition with phage clone peptide SEQ ID NO: 83 [1]: + (Peptide competes with phage binding.) | competition with phage clone peptide SEQ ID NO: 1034 [1]: + (Peptide competes with phage binding.) | competition with phage clone peptide SEQ ID NO: 1044 [1]: −

Compound B: heterodimer of SEQ. ID. NO: 58 and SEQ ID. NO. 237 (chain 1 YDCRIAQVGELCDL; chain 2 LCFSEFLGEWVDCN; cysteine pairing not given here; also: heterodimer, linkage not given here)
STAT5 phosphorylation (pSTAT5), Western Blot (NK-92 cells): induced (in a dose-responsive manner) STAT5 phosphorylation

236 (MCWLEWGEWVGSCL) [Peptide 236]
competition with phage clone peptide SEQ ID NO 198 (IL-2Rγc subunit): + (Peptide competes with phage binding.) | competition with phage clone peptide SEQ ID NO 224 (IL-2Rγc subunit): + (Peptide competes with phage binding.) | competition with phage clone peptide SEQ ID NO 236 (IL-2Rγc subunit): + (Peptide competes with phage binding.) | competition with phage clone peptide SEQ ID NO 248 (IL-2Rγc subunit): + (Peptide competes with phage binding.) | competition with phage clone peptide SEQ ID NO 266 (IL-2Rγc subunit): + (Peptide competes with phage binding.) | competition with phage clone peptide SEQ ID NO 948 (IL-2Rγc subunit): −

224 (DCSMWEGVELCW) [Peptide 224]
competition with phage clone peptide SEQ ID NO 198 (IL-2Rγc subunit): + (Peptide competes with phage binding.) | competition with phage clone peptide SEQ ID NO 224 (IL-2Rγc subunit): + (Peptide competes with phage binding.) | competition with phage clone peptide SEQ ID NO 236 (IL-2Rγc subunit): + (Peptide competes with phage binding.) | competition with phage clone peptide SEQ ID NO 248 (IL-2Rγc subunit): + (Peptide competes with phage binding.) | competition with phage clone peptide SEQ ID NO 266 (IL-2Rγc subunit): + (Peptide competes with phage binding.) | competition with phage clone peptide SEQ ID NO 948 (IL-2Rγc subunit): − | competition with phage clone peptide SEQ ID NO: 58 [1]: − | competition with phage clone peptide SEQ ID NO: 170 [1]: − | competition with phage clone peptide SEQ ID NO: 83 [1]: − | competition with phage clone peptide SEQ ID NO: 1034 [1]: − | competition with phage clone peptide SEQ ID NO: 1044 [1]: −

58 (YDCRIAQVGELCDL) [Peptide 58]
competition with phage clone peptide SEQ ID NO 198 (IL-2Rγc subunit): − | competition with phage clone peptide SEQ ID NO 224 (IL-2Rγc subunit): − | competition with phage clone peptide SEQ ID NO 236 (IL-2Rγc subunit): − | competition with phage clone peptide SEQ ID NO 248 (IL-2Rγc subunit): − | competition with phage clone peptide SEQ ID NO 266 (IL-2Rγc subunit): − | competition with phage clone peptide SEQ ID NO 948 (IL-2Rγc subunit): − | competition with phage clone peptide SEQ ID NO: 58 [1]: +^1 (Peptide competes with phage binding.) | competition with phage clone peptide SEQ ID NO: 170 [1]: + (Peptide competes with phage binding.) | competition with phage clone peptide SEQ ID NO: 83 [1]: + (Peptide competes with phage binding.) | competition with phage clone peptide SEQ ID NO: 1034 [1]: + (Peptide competes with phage binding.) | competition with phage clone peptide SEQ ID NO: 1044 [1]: −

1044 (RSCYYKRPRLWCSE) [compound 1044]
competition for binding to the IL-2Rβ binding site with the group of IL-2Rβ ligands [1]: does not compete

248 (DLSDLCTFWLSQ) [Peptide 248]
competition with phage clone peptide SEQ ID NO 198 (IL-2Rγc subunit): + (Peptide competes with phage binding.) | competition with phage clone peptide SEQ ID NO 224 (IL-2Rγc subunit): + (Peptide competes with phage binding.) | competition with phage clone peptide SEQ ID NO 236 (IL-2Rγc subunit): + (Peptide competes with phage binding.) | competition with phage clone peptide SEQ ID NO 248 (IL-2Rγc subunit): + (Peptide competes with phage binding.) | competition with phage clone peptide SEQ ID NO 266 (IL-2Rγc subunit): + (Peptide competes with phage binding.) | competition with phage clone peptide SEQ ID NO 948 (IL-2Rγc subunit): −
